Results reported in doi:10.1101/442517 (bioRxiv, 2018).

What was measured:
[1] = biological target: RaxX21-sY (tyrosine sulfated synthetic 21-residue derivative of RaxX, residues 35-55) (Xanthomonas oryzae pv. oryzae); assay: MST
[2] = biological target: RaxX21-nY (non-sulfated synthetic 21-residue derivative of RaxX, residues 35-55) (Xanthomonas oryzae pv. oryzae); assay: MST

B1: XA21 extracellular domain (XA21^ECD; XA21 residues 23-649) (domain or fragment)
chain: SDDDGDAAGDELALLSFKSSLLYQGGQSLASWNTSGHGQHCTWVGVVCGRRRRRHPHRVVKLLLRSSNLSGIISPSLGNLSFLRELDLGDNYLSGEIPPELSRLSRLQLLELSDNSIQGSIPAAIGACTKLTSLDLSHNQLRGMIPREIGASLKHLSNLYLYKNGLSGEIPSALGNLTSLQEFDLSFNRLSGAIPSSLGQLSSLLTMNLGQNNLSGMIPNSIWNLSSLRAFSVRENKLGGMIPTNAFKTLHLLEVIDMGTNRFHGKIPASVANASHLTVIQIYGNLFSGIITSGFGRLRNLTELYLWRNLFQTREQDDWGFISDLTNCSKLQTLNLGENNLGGVLPNSFSNLSTSLSFLALELNKITGSIPKDIGNLIGLQHLYLCNNNFRGSLPSSLGRLKNLGILLAYENNLSGSIPLAIGNLTELNILLLGTNKFSGWIPYTLSNLTNLLSLGLSTNNLSGPIPSELFNIQTLSIMINVSKNNLEGSIPQEIGHLKNLVEFHAESNRLSGKIPNTLGDCQLLRYLYLQNNLLSGSIPSALGQLKGLETLDLSSNNLSGQIPTSLADITMLHSLNLSFNSFVGEVPTIGAFAAASGISIQGNAKLCGGIPDLHLPRCCPLLENRK
[1]
  Kd: 20 nM
[2]
  Kd: 400 nM
